The target in data set [1] is αvβ3 receptors on PC-3 cells (Homo sapiens, UniProt P05106+P06756). The data set is described as follows: Cell binding assay, displacement of 125I-Echistatin in PC-3 cells.
Data set [2] deals with PC-3 tumor uptake in nude mice. The settings on record: mouse, in vivo; cited from earlier work.
A further data set concerns GRPr. The settings on record: read-out: GRPr binding affinity; nonmetallated probe; cited from earlier work.
Data set [3] relates to PC-3 cells. The data set is described as follows: In vitro internalization assay. Type of data set: cell-based, human. The settings on record: 37°C, postincubation.
Data set [4] in a line: Biodistribution in healthy CF-1 mice. It counts as in vivo, mouse. The note with it: female, CF-1, mouse, iv, 750 kBq, total radioactivity.
In the next data set the test system is CF-1 mice. In words: Biodistribution in healthy CF-1 mice. Type of data set: in vivo, mouse. The settings on record: CF-1 mice, tail vein injection, after 1 h p.i.
Data set [5] deals with PC-3 tumor-bearing SCID mouse. In words: MicroPET/CT imaging. Type of data set: in vivo. The settings on record: PC-3 tumor-bearing mouse, 26 MBq via tail vein, 15 h p.i.
The nature of another data set: in vivo. The note with it: female, SCID, mouse, iv, 750 kBq, total radioactivity; for tissue uptake at 1 h / tissue uptake at 4 h / tissue uptake at 24 h: Biodistribution.
Data set [6] in a line: Biodistribution in PC-3 tumor-bearing SCID mice. The note with it: female, mouse, in vivo, iv, total radioactivity; for tissue uptake at 24 h: 24 h p.i.
Data set [7] relates to PC-3 tumor-bearing SCID mice. In words: Biodistribution in PC-3 tumor-bearing SCID mice. The note with it: PC-3 tumor-bearing SCID mice, tail vein injection, 1 h p.i., mean±S.D., n=5, bilateral xenografts.
The test system of data set [8] is PC-3 cells. The data set is described as follows: Blocking experiment, cellular uptake of tracer. Type of data set: cell-based, human. The settings on record: 50 μg blocker added 15 min prior to tracer.
The conditions of data set [9]: later time points; cited from earlier work.

Entries after “also recorded” stand apart in the source; their conditions may differ.

Sequence of αvβ3 receptors on PC-3 cells (P06756 31-889 limits assumed): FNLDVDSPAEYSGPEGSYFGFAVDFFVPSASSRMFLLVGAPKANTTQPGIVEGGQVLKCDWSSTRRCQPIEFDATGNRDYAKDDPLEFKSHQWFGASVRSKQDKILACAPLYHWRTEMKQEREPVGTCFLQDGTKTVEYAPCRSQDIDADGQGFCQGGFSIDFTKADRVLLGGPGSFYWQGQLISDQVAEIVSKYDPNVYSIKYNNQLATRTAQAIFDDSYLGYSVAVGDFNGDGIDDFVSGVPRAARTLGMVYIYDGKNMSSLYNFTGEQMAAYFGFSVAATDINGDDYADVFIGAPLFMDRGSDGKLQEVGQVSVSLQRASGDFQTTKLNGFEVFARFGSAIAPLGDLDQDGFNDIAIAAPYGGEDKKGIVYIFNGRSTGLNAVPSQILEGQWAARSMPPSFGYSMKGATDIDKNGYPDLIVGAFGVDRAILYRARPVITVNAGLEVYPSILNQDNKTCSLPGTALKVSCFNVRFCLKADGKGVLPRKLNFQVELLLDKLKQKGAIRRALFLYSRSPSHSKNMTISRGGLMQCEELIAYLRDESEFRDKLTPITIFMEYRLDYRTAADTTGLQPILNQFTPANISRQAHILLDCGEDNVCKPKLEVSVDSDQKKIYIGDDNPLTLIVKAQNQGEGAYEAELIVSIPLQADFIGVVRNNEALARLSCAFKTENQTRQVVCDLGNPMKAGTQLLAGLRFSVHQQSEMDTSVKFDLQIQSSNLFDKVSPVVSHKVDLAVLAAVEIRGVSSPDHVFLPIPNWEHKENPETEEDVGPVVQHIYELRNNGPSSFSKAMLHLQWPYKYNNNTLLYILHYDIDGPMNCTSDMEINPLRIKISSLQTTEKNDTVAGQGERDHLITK
Sequence of αvβ3 receptors on PC-3 cells (P06756 891-1048 partner limits assumed): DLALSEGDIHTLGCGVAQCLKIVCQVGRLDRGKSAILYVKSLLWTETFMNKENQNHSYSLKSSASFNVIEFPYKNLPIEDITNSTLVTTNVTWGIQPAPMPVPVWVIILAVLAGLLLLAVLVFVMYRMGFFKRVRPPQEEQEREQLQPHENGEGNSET
Sequence of αvβ3 receptors on PC-3 cells (P05106 27-788): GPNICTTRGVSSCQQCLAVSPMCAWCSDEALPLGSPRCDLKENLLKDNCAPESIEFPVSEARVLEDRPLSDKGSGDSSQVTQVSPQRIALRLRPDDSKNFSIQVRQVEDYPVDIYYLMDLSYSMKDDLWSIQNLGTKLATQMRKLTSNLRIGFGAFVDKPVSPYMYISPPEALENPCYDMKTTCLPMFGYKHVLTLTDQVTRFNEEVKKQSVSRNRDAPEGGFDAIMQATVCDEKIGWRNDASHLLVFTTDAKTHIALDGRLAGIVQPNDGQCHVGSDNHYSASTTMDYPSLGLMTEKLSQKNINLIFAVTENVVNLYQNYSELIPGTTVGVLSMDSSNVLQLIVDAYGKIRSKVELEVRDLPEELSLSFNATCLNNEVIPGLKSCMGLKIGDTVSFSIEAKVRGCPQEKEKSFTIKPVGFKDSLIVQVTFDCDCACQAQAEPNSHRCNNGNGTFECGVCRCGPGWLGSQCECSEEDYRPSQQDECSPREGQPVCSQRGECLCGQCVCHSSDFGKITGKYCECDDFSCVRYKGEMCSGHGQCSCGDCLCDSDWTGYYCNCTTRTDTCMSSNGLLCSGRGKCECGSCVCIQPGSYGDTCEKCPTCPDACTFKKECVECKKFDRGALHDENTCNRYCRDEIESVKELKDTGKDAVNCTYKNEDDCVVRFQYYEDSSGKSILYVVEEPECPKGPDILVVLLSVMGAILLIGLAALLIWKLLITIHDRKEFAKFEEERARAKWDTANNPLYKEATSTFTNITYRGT

As for ^natCu-NO2A-RGD, in data set [1], the “Displacement of 125I-Echistatin (binding affinity for αvβ3 receptors)” value is “minimal displacement; also recorded: extremely poor binding affinity”.

Take ^64Cu-NO3A-BBN(7-14)NH2: the PC-3 tumor retention in data set [2] was 0.44±0.39 %ID/g.

As to NO3A-RGD-BBN(7-14)NH2, the IC50 in the data set with GRPr was 0.0927 ± 0.00353 µM.

By tissue uptake is commonly meant the percentage of the injected dose found per gram of tissue. With `CSCC[C@H](NC(=O)[C@H](CC(C)C)NC(=O)[C@H](Cc1c[nH]cn1)NC(=O)CNC(=O)[C@@H](NC(=O)[C@H](C)NC(=O)[C@H](Cc1c[nH]c2ccccc12)NC(=O)[C@H](CCC(N)=O)NC(=O)CCCCCNC(=O)[C@H](CCC(=O)NCCCC[C@@H]1NC(=O)[C@@H](Cc2ccc(O)cc2)NC(=O)[C@H](CC(=O)O)NC(=O)CNC(=O)[C@H](CCCNC(=N)N)NC1=O)NC(=O)CN1CCN(CC(=O)O)CCN(CC(=O)O)CC1)C(C)C)C(N)=O` [^64Cu-NO2A-RGD-Glu-6-Ahx-BBN(7-14)NH2, metal not drawn], the “Time of maximum internalization” value in the data set on PC-3 cells [3] is reported as ~ 90 min. Further, the tissue uptake at 1 h in data set [4] (pancreas) was 5.9 ± 1.74 %ID/g; in the data set “in vivo” (Bone), 0.52 ± 0.27 %ID/g; in the data set “in vivo” (Brain), 0.05 ± 0.01 %ID/g; in the data set “in vivo” (Heart), 0.35 ± 0.1 %ID/g; in the data set “in vivo” (Large intestine), 1.34 ± 0.11 %ID/g; in the data set “in vivo” (Lung), 0.97 ± 0.25 %ID/g. Also, the tissue uptake at 1 h in “in vivo” (Muscle) was determined as 0.22 ± 0.08 %ID/g; in “in vivo” (Pancreas) it was 21.6 ± 3.3 %ID/g; in “in vivo” (Small intestine) it was 5.21 ± 0.75 %ID/g; in [6] (ICR SCID, 750 kBq (~20 uCi)) it was 1.04 ± 0.08 %ID/g; in data set [6] (SCID, 750 kBq, Biodistribution, Bladder, PC-3 tumor-bearing SCID mice, tail vein injection, 1 h p.i., mean±S.D., n=5), 3.39 ± 3.54 %ID/g. The results for the tissue uptake dose at 1 h (in data set [4] (whole blood); in “in vivo”) were 0.42 %ID and 0.72 ± 0.1 %ID, respectively. The Urinary excretion with CF-1 mice is about 85%. Also, the MicroPET image quality result in data set [5] is “high-quality, high-contrast images”. Besides, the tissue uptake dose at 4 h in “in vivo” came out at 0.16 ± 0.05 %ID. In the data set “in vivo”, the tissue uptake dose at 24 h is 0.18 ± 0.02 %ID. The tissue uptake at 4 h in the data set “in vivo” (Bone) came to 0.13 ± 0.08 %ID/g; in the data set “in vivo” (Brain) it was 0.04 ± 0.02 %ID/g; in the data set “in vivo” (Heart), 0.22 ± 0.05 %ID/g; in “in vivo” (Large intestine), 6.86 ± 0.88 %ID/g; in “in vivo” (Muscle), 0.09 ± 0.04 %ID/g; in “in vivo” (Pancreas), 13.2 ± 1.79 %ID/g. For the same compound, the tissue uptake at 4 h in “in vivo” (Small intestine) was found to be 2.1 ± 0.4 %ID/g; in [6] (SCID, 750 kBq, Biodistribution, Bladder, PC-3 tumor-bearing SCID mice, tail vein injection, 4 h p.i., mean±S.D., n=5) it was 0.55 ± 0.33 %ID/g. In addition, the tissue uptake at 24 h worked out at 0.13 ± 0.15 %ID/g in “in vivo” (Bone); 0.03 ± 0.02 %ID/g in the data set “in vivo” (Brain); 0.48 ± 0.17 %ID/g in the data set “in vivo” (Heart); 0.85 ± 0.18 %ID/g in the data set “in vivo” (Large intestine); 0.08 ± 0.1 %ID/g in “in vivo” (Muscle); 5.18 ± 0.57 %ID/g in the data set “in vivo” (Pancreas). Besides, the tissue uptake at 24 h was determined as 0.78 ± 0.14 %ID/g in “in vivo” (Small intestine); 0.31 ± 0.29 %ID/g in [6] (SCID, 750 kBq, Biodistribution, Bladder, PC-3 tumor-bearing SCID mice, tail vein injection, mean±S.D., n=5); 2.42 ± 0.57 %ID/g in data set [6] (SCID, 750 kBq, Biodistribution, Tumor, PC-3 tumor-bearing SCID mice, tail vein injection, mean±S.D., n=5, bilateral xenografts). The “Biodistribution, Tumor” value in [7] is 3.95±1.04 %ID/g.

In the case of NO2A-RGD, the “Reduction of cellular uptake of ^64Cu-NO2A-RGD-Glu-6-Ahx-BBN(7-14)NH2 tracer” value with PC-3 cells [8] is recorded as 65%.

As to ^64Cu-NO3A-RGD-BBN(7-14)NH2, the “Internalization rate compared to ^64Cu-NO2A-RGD-Glu-6-Ahx-BBN(7-14)NH2” value in data set [9] is “approximately three times higher”. For the same compound, in data set [2], the PC-3 tumor retention is 2.04±0.35 %ID/g and the “Retention in the kidneys” value is 1.87±0.41 %ID/g.

For ^64Cu-NO3A-RGD, in [2], the PC-3 tumor retention is 0.55±0.32 %ID/g.
